Experimental data reported in patent publication US10618964B2, “Nanobody against IL-6R” (Ablynx N.V., dated 2020).
Changes are numbered by the printed parent chain.

B1: IL6RPMP107A9 (VHH)
VHH: EVQLVESGGGLVQAGGSLRLSCAASGGIFSDMFMGWFRQAPGKSRESVARISPSGNTFYQDSVRGRFTISTDNAKNTVYLQMNNLKPEDTAVYYCAANVGVTGSYEYWGQGTQVTVSS
B2: IL6RPMP104B8 (VHH)
VHH: EVQLVESGGGLVQAGGSLRLSCAASGFAFDDYAIGWFRQAPGKEREGVSSISSSNGNTYYADSVRGRFTISSDNAKNTVYLQMNSLKPEDTGVYYCAAIWGIFFNEKMPVGAYDYWGQGTQVTVSS
B3: IL6RPMP100G11 (VHH)
VHH: EVQLVESGGGLVQAGGSLRLSCAASGRGFSPYTMGWFRQAPGKERVFVAGISWSTGIAHYTDSVKGRFTISRDNAKNTGSLQMNSLKPEDTAVYYCAVVQTTKGNYDYWGQGTQVTVSS
B4: IL6RPMP107A1 (VHH)
VHH: EVQLVESGGGLVQAGGSLNLSCNASGDIGSINAMGWYRQAPGQQREWVAVITDTDSTIYPDSVKGRFAISRDGAKNTVHLRMSSLKPEDTAVYYCNAYQAGWGDYWGQGTQVTVSS
B5: IL6RPMP108E1 (VHH)
VHH: EVQLVESGGGLVQAGGSLRLSCAASGFTFDDYDIGWFRQAPGKEREGVSGISSSDGNTYYADSVKGRFTISSDNAKNTVYLQMNSLKPEDTAVYYCAAEPPDSSWYLDGSPEFFKYWGQGTQVTVSS
B6: IL6RPMP120G6 (VHH)
VHH: EVQLVESGGDLVQTGGSLRLSCAASGITVSDRAMGWYRQAPGKQREMVAGVSRGGMTSYADSVKGRLTISRDNAKNSVYLQMNSLNPEDTAVYYCSAYYRYGSSVPQYWGQGTQVTVSS
B7: Reference IgG (antibody, V domains shown)
VH: QVQLQESGPGLVRPSQTLSLTCTVSGYSITSDHAWSWVRQPPGRGLEWIGYISYSGITTYNPSLKSRVTMLRDTSKNQFSLRLSSVTAADTAVYYCARSLARTTAMDYWGQGSLVTVSS
VL: DIQMTQSPSSLSASVGDRVTITCRASQDISSYLNWYQQKPGKAPKLLIYYTSRLHSGVPSRFSGSGSGTDFTFTISSLQPEDIATYYCQQGNTLPYTFGQGTKVEIKR
B8: IL6RPMP120F4 (VHH)
VHH: EVQLVESGGGLVQTGGSLRLSCAVSGRTDSTASVGWFRQAPGKQREWVVGISSGGSTHYADSVKGRFISSQDDAKNTVYLQMNSLKPEDTAIYYCAIAHGSSTYNYWGQGTQVTVSS
B9: IL6RPMP101A1 (VHH)
VHH: EVQLVESGGGTVQAGGSLKLSCAASGRTFTNYAMGWFRQAPGKEREFVAAIAYATHFADSVKGRFTISRGNAKNTVYLQMNSLKPEDTAVYYCAADLSLSKMVSKITSDMDYWGKGTLVTVSS
B10: IL6RPMP107G10 (VHH)
VHH: EVQLVESGGGLVQAGGSLRLSCAASGSIENINAMGWYRQAPGKQRDFLAIITDGSKTLYADSVKGRFTISNDNAKNTVYLQMNSLKPEDTAVYYCNAYQAGWGDYWGQGTQVTVSS
B11: IL6RPMP106F4 (VHH)
VHH: EVQLVESGGGLVQAGGSLRLSCAASGSIFRINAMGWYRQAPGKQRELVAAAISGGSTNYADFVKGRFTISRDNAKNTVYLQMNSLKPGDTAVYYCNALVVSHNYSDYVPFPDDYWGQGTQVTVSS
B12: IL6RPMP120C1 (VHH)
VHH: EVQLVESGGGLVQAGGSLSLSCATSGRTISDDTMAWFRQAPGKEREFVATITFSGARTHYSDSVRDRFTISRDNAKNTVYLQMNSLKSEDTAVYYCAASTKYYSSTYNYIHPAFYDIWGQGTQVTVSS
B13: IL6RPMP101F2 (VHH)
VHH: B2 VHH
B14: IL6RPMP105C2 (VHH)
VHH: B11 VHH with K43E, G88E
B15: IL6RPMP101C3 (VHH)
VHH: B2 VHH with Q13R
B16: IL6RPMP107E4 (VHH)
VHH: B10 VHH with E29D, N30R, I50V, S55D
B17: IL6RPMP101G2 (VHH)
VHH: B11 VHH with G88E
B18: IL6RPMP120A1 (VHH)
VHH: B12 VHH
B19: IL6RPMP105H10 (VHH)
VHH: B2 VHH with L4M, T91A
B20: IL6RPMP120B2 (VHH)
VHH: B12 VHH
B21: IL6RPMP120D2 (VHH)
VHH: B12 VHH
B22: IL6RPMP106F7 (VHH)
VHH: B11 VHH with G8E, G88E

Target: IL-6R on TF-1 cells (Homo sapiens (Human), UniProt P08887)
Assay: cell-based or functional assay

Binder	IC50, IL-6-dependent proliferation of TF-1 cells (3H-thymidine) [nM]
B1	349
B2	245
B3	116
B4	4.05
B5	0.149
B6	10.2
B7	0.53

Target: T1, soluble IL-6R in cynomolgous plasma (cynomolgus monkey, UniProt A0A2K5WN54)
Assay: ELISA 2, periplasmic extract; competitor IL-6; cyno plasma
Procedure: (§1) In this ELISA, plasma was used as a source of native soluble IL-6R. By this assay, we aimed to confirm the alphascreen results and to get a view on the cross-reactivity of the clones towards cynomolgous IL-6R. Human plasma (ELISA 1 and ELISA 3) or cynomolgous plasma (ELISA 2) were pre-incubated with a dilution of the periplasmic extract of the clones together with human IL-6 (50 ng/mL). Subsequently, plasma soluble IL-6R was captured on a B-N12 coated plate and bound IL-6 was detected using anti-IL-6 antibody BAF206 and streptavidin-HRP (ELISA 1 and ELISA 2). The ELISA signal dropped when the Nanobody clone could compete with IL-6 for binding to soluble IL-6R. ELISA 3 was a parallel ELISA in which the detection antibody was replaced by anti-IL-6R antibody BAF227 to exclude false positive competitors, which actually compete with B-N12 (e.g. family 2). Depicted in Table C-5 is the ratio of the OD450 value of the test sample versus the blank OD450 (mock sample). Clones were ordered based on ELISA 1 data.

Binder	OD450 ratio sample/blank
B1	0.0867
B2	0.735
B3	0.202
B4	0.292
B5	0.359
B6	0.0289
B8	0.0331
B9	0.521
B10	0.883
B11	1.19
B12	0.187
B13	0.811
B14	1.01
B15	0.801
B16	1.19
B17	1.04
B18	0.198
B19	0.679
B20	0.204
B21	0.158
B22	1

Target: T2, native soluble IL-6R in human plasma (human, UniProt P08887)
Assay: ELISA 1, periplasmic extract; competitor IL-6; human plasma
Procedure: as §1

Binder	OD450 ratio sample/blank
B1	1.08
B2	1.46
B3	1.71
B4	0.215
B5	0.0894
B6	0.236
B8	0.498
B9	0.508
B10	0.523
B11	0.557
B12	0.567
B13	0.569
B14	0.577
B15	0.58
B16	0.592
B17	0.597
B18	0.598
B19	0.627
B20	0.645
B21	0.659
B22	0.672

Target: T2, native soluble IL-6R in human plasma
Assay: ELISA 3, periplasmic extract; competitor BN-12; human plasma
Procedure: as §1

Binder	OD450 ratio sample/blank
B1	0.992
B2	1.05
B3	0.997
B4	0.967
B5	0.954
B6	0.993
B8	0.923
B9	0.989
B10	1.01
B11	1.01
B12	1.02
B13	0.972
B14	0.996
B15	0.975
B16	1.02
B17	0.975
B18	1.01
B19	1.02
B20	1.02
B21	0.993
B22	1

Target: T1, soluble IL-6R in cynomolgous plasma
Assay: plasma potency ELISA, purified Nanobody; competitor IL-6; cyno plasma
Procedure: as §1
(§2) A potency ELISA was done with the purified Nanobodies as described in Example 9. Here, different dilutions of each purified Nanobody were incubated with human (ELISA1) and cynomolgous plasma (ELISA2). IC50 values are depicted in Table C-9.

Binder	IC50 [nM]
B1	4.7
B2	252
B4	47.8
B5	29.1
B6	0.66

Target: T2, native soluble IL-6R in human plasma
Assay: plasma potency ELISA, purified Nanobody; competitor IL-6; human plasma
Procedure: as §1, §2

Binder	IC50 [nM]
B1	3.5
B2	7.8
B4	0.38
B5	0.15
B6	1.12
